Source: the RNAGym collection of RNA variant scans (doi:10.7554/elife.90254)

B1: OR4K15 (parent)
chain: GUUAACGGUCAUAGGCCAUGGAAACUAGGAGCACCAUUUCGCUGCCAGUGAAGAAAUGAACAAAGAAAAUCUGGGCCAGGCAGGCAUCAAAAGAAAUAGUCUUGCGCUCAACCAGAAAGUCUGUAAUCAUUUUAAGGGUA

Variants of: B1
Experiment: self-cleavage, relative activity (ratio to wild type); higher = more cleavage; in vitro, sequencing; the parent is a self-cleaving ribozyme

Question: With GUUAACGGUCAUAGGCCAUGGAAACUAGGAGCACCAUUUCGCUGCCAGUGAAGAAAUGAACAAAGAAAAUCUGGGCCAGGCAGGCAUCAAAAGAAAUAGUCUUGCGCUCAACCAGAAAGUCUGUAACCAUUUUUAGGGUA [U127C A134U] as the variant, how does the self-cleavage read?
Answer: 1.36

Question: Which self-cleavage does the source give for GUUAACGGUCAUAGGCCAUGGAAACUAGGAGCACCAUUUCGCUGCCAGUGAAGAAAUGAACAAAGAAAAUCUGGGCCAGGCAGGCAUCAAAAGAAAUAGUCUUGCGCUCAACCAGAAAGUCUGUAGUCAUUUUAAGGGAA [A126G U139A] here?
Answer: 0

Question: For GUUAACGGUCAUAGGCCAUGGAAACUAGGAGCACCAUUUCGCUGCCAGUGAAGAAAUGAACAAAGAAAAUCUGGGCCAGGCAGGCAUCAAAAGAAAUAGUCUUGCGCUCAACCAGAAAGUCUGUAUUCAUUUUAAGGGAA [A126U U139A], which self-cleavage is on record?
Answer: 1.99

Question: For GUUAACGGUCAUAGGCCAUGGAAACUAGGAGCACCAUUUCGCUGCCAGUGAAGAAAUGAACAAAGAAAAUCUGGGCCAGGCAGGCAUCAAAAGAAAUAGUCUUGCGCUCAACCAGAAAGUCUGUAUUCAUUCUAAGGGUA [A126U U132C], which self-cleavage is on record?
Answer: 1.21

Question: For GUUAACGGUCAUAGGCCAUGGAAACUAGGAGCACCAUUUCGCUGCCAGUGAAGAAAUGAACAAAGAAAAUCUGGGCCAGGCAGGCAUCAAAAGAAAUAGUCUUGCGCUCAACCAGAAAGUCUGUAACCAUUUUAAGGGUA [U127C], which self-cleavage is on record?
Answer: 0.68

Question: With GUUAACGGUCAUAGGCCAUGGAAACUAGGAGCACCAUUUCGCUGCCAGUGAAGAAAUGAACAAAGAAAAUCUGGGCCAGGCAGGCAUCAAAAGAAAUAGUCUUGCGCUCAACCAGAAAGUCUGUAAACAUUUUAAGGGUA [U127A] as the variant, how does the self-cleavage read?
Answer: 1.6

Question: For GUUAACGGUCAUAGGCCAUGGAAACUAGGAGCACCAUUUCGCUGCCAGUGAAGAAAUGAACAAAGAAAAUCUGGGCCAGGCAGGCAUCAAAAGAAAUAGUCUUGCGCUCAACCAGAAAGUCUGUAGUCAUUUUACGGGUA [A126G A135C], which self-cleavage is on record?
Answer: 0.84

Question: Which self-cleavage does the source give for GUUAACGGUCAUAGGCCAUGGAAACUAGGAGCACCAUUUCGCUGCCAGUGAAGAAAUGAACAAAGAAAAUCUGGGCCAGGCAGGCAUCAAAAGAAAUAGUCUUGCGCUCAACCAGAAAGUCUGUAGUCAUGUUAAGGGUA [A126G U131G] here?
Answer: 1.23

Question: With GUUAACGGUCAUAGGCCAUGGAAACUAGGAGCACCAUUUCGCUGCCAGUGAAGAAAUGAACAAAGAAAAUCUGGGCCAGGCAGGCAUCAAAAGAAAUAGUCUUGCGCUCAACCAGAAAGUCUGUAAACAAUUUAAGGGUA [U127A U130A] as the variant, how does the self-cleavage read?
Answer: 1.95

Question: With GUUAACGGUCAUAGGCCAUGGAAACUAGGAGCACCAUUUCGCUGCCAGUGAAGAAAUGAACAAAGAAAAUCUGGGCCAGGCAGGCAUCAAAAGAAAUAGUCUUGCGCUCAACCAGAAAGUCUGUAACCCUUUUAAGGGUA [U127C A129C] as the variant, how does the self-cleavage read?
Answer: 0.21

Question: With GUUAACGGUCAUAGGCCAUGGAAACUAGGAGCACCAUUUCGCUGCCAGUGAAGAAAUGAACAAAGAAAAUCUGGGCCAGGCAGGCAUCAAAAGAAAUAGUCUUGCGCUCAACCAGAAAGUCUGUAAACAUCUUAAGGGUA [U127A U131C] as the variant, how does the self-cleavage read?
Answer: 2.45

Question: For GUUAACGGUCAUAGGCCAUGGAAACUAGGAGCACCAUUUCGCUGCCAGUGAAGAAAUGAACAAAGAAAAUCUGGGCCAGGCAGGCAUCAAAAGAAAUAGUCUUGCGCUCAACCAGAAAGUCUGUAAACAUUUUAAGGGUU [U127A A140U], which self-cleavage is on record?
Answer: 1.25

Question: For GUUAACGGUCAUAGGCCAUGGAAACUAGGAGCACCAUUUCGCUGCCAGUGAAGAAAUGAACAAAGAAAAUCUGGGCCAGGCAGGCAUCAAAAGAAAUAGUCUUGCGCUCAACCAGAAAGUCUGUAUUCAUCUUAAGGGUA [A126U U131C], which self-cleavage is on record?
Answer: 1.84

Question: For GUUAACGGUCAUAGGCCAUGGAAACUAGGAGCACCAUUUCGCUGCCAGUGAAGAAAUGAACAAAGAAAAUCUGGGCCAGGCAGGCAUCAAAAGAAAUAGUCUUGCGCUCAACCAGAAAGUCUGUAGUCAUUCUAAGGGUA [A126G U132C], which self-cleavage is on record?
Answer: 1.07

Question: With GUUAACGGUCAUAGGCCAUGGAAACUAGGAGCACCAUUUCGCUGCCAGUGAAGAAAUGAACAAAGAAAAUCUGGGCCAGGCAGGCAUCAAAAGAAAUAGUCUUGCGCUCAACCAGAAAGUCUGUAGCCAUUUUAAGGGUA [A126G U127C] as the variant, how does the self-cleavage read?
Answer: 0.83

Question: With GUUAACGGUCAUAGGCCAUGGAAACUAGGAGCACCAUUUCGCUGCCAGUGAAGAAAUGAACAAAGAAAAUCUGGGCCAGGCAGGCAUCAAAAGAAAUAGUCUUGCGCUCAACCAGAAAGUCUGUAGACAUUUUAAGGGUA [A126G U127A] as the variant, how does the self-cleavage read?
Answer: 1.77

Question: With GUUAACGGUCAUAGGCCAUGGAAACUAGGAGCACCAUUUCGCUGCCAGUGAAGAAAUGAACAAAGAAAAUCUGGGCCAGGCAGGCAUCAAAAGAAAUAGUCUUGCGCUCAACCAGAAAGUCUGUAACCAUUUUAGGGGUA [U127C A135G] as the variant, how does the self-cleavage read?
Answer: 0.83

Question: With GUUAACGGUCAUAGGCCAUGGAAACUAGGAGCACCAUUUCGCUGCCAGUGAAGAAAUGAACAAAGAAAAUCUGGGCCAGGCAGGCAUCAAAAGAAAUAGUCUUGCGCUCAACCAGAAAGUCUGUAACCAAUUUAAGGGUA [U127C U130A] as the variant, how does the self-cleavage read?
Answer: 0.35

Question: For GUUAACGGUCAUAGGCCAUGGAAACUAGGAGCACCAUUUCGCUGCCAGUGAAGAAAUGAACAAAGAAAAUCUGGGCCAGGCAGGCAUCAAAAGAAAUAGUCUUGCGCUCAACCAGAAAGUCUGUAACCAUUUUAAGGGUU [U127C A140U], which self-cleavage is on record?
Answer: 1.33

Question: For GUUAACGGUCAUAGGCCAUGGAAACUAGGAGCACCAUUUCGCUGCCAGUGAAGAAAUGAACAAAGAAAAUCUGGGCCAGGCAGGCAUCAAAAGAAAUAGUCUUGCGCUCAACCAGAAAGUCUGUAUUCAUUUUAGGGGUA [A126U A135G], which self-cleavage is on record?
Answer: 1.24

Question: Which self-cleavage does the source give for GUUAACGGUCAUAGGCCAUGGAAACUAGGAGCACCAUUUCGCUGCCAGUGAAGAAAUGAACAAAGAAAAUCUGGGCCAGGCAGGCAUCAAAAGAAAUAGUCUUGCGCUCAACCAGAAAGUCUGUAUCCAUUUUAAGGGUA [A126U U127C] here?
Answer: 0.5
